Measurements from patent US20140274782A1, “AFFINITY REAGENTS AND METHODS FOR DETECTION, PURIFICATION, AND PROTEOMIC ANALYSIS OF METHYLATED PROTEINS” (The Board of Trustees of the Leland Stanford Junior …, priority 2013, published 2014).

T1: G9a and GLP (Homo sapiens, UniProt Q96KQ7+Q9H9B1)
T1 sequence (Q96KQ7 2-1210 limits assumed): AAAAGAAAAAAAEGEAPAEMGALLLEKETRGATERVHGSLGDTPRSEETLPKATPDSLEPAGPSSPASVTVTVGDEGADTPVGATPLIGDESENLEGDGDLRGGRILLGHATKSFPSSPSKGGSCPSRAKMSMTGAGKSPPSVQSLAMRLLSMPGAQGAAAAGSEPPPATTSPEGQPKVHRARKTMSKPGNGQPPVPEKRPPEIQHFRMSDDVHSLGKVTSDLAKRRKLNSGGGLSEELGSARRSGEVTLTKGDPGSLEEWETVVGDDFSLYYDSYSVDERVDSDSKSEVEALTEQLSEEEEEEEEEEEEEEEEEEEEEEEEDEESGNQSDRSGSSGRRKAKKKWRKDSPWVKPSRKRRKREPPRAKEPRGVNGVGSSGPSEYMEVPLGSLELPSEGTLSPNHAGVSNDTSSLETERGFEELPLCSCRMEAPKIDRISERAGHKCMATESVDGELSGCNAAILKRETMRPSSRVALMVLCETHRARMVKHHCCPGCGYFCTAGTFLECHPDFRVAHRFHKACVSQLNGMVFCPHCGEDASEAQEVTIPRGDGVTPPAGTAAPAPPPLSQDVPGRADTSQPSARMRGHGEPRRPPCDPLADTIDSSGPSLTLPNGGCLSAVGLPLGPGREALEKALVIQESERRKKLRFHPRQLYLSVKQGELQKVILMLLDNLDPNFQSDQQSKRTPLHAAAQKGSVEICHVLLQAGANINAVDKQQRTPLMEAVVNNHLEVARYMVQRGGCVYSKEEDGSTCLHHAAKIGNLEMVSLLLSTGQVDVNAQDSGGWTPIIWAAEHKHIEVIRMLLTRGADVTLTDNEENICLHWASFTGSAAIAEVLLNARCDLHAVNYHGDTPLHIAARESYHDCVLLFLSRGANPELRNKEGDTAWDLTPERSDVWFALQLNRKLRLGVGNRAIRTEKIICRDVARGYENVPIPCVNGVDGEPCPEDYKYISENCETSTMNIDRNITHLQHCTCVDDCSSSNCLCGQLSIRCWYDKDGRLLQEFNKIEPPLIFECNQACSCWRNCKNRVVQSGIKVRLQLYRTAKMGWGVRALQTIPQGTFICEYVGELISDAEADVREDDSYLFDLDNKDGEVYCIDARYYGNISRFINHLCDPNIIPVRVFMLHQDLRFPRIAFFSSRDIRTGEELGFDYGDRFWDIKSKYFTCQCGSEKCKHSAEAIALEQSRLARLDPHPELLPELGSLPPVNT
T1 sequence (Q9H9B1 2-1298 limits assumed): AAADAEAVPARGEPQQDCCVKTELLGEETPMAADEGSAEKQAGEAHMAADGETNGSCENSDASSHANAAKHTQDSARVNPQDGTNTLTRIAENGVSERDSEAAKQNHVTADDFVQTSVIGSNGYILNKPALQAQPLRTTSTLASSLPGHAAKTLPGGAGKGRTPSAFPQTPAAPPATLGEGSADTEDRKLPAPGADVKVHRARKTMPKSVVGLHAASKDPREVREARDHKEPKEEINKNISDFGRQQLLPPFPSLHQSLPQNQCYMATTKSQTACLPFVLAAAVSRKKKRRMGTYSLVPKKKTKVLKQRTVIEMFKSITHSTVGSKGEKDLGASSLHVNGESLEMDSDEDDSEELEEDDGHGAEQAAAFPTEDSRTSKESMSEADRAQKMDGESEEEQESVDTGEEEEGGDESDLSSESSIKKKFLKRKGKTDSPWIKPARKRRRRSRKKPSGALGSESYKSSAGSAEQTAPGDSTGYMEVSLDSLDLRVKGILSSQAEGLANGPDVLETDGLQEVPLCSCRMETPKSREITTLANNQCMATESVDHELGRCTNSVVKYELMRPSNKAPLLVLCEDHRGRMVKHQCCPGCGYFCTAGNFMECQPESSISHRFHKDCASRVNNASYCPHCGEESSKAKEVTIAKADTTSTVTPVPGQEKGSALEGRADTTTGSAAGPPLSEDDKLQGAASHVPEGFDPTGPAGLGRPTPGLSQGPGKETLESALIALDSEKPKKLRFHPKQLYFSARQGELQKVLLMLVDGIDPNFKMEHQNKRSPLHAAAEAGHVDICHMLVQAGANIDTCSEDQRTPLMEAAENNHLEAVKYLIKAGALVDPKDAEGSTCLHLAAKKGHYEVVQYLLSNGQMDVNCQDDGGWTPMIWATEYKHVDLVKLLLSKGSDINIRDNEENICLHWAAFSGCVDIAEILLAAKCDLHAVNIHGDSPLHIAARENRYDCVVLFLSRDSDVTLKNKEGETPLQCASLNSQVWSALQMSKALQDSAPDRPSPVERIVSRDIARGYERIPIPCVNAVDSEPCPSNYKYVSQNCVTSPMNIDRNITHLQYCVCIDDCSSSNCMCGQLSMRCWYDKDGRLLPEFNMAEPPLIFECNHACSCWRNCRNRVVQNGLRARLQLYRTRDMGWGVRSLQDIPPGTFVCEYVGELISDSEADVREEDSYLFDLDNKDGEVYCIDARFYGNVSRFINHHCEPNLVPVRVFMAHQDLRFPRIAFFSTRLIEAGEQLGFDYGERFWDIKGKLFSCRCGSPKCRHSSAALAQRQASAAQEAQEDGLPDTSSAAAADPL

B1: Peroxiredoxin-2 (protein, UniProt P32119 2-198, looked up)
Peroxiredoxin-2: ASGNARIGKPAPDFKATAVVDGAFKEVKLSDYKGKYVVLFFYPLDFTFVCPTEIIAFSNRAEDFRKLGCEVLGVSVDSQFTHLAWINTPRKEGGLGPLNIPLLADVTRRLSEDYGVLKTDEGIAYRGLFIIDGKGVLRQITVNDLPVGRSVDEALRLVQAFQYTDEHGEVCPAGWKPGSDTIKPNVDDSKEYFSKHN
B2: Cleavage and polyadenylation specificity factor subunit 2 (protein, UniProt Q9P2I0 1-782, looked up)
Cleavage and polyadenylation …: MTSIIKLTTLSGVQEESALCYLLQVDEFRFLLDCGWDEHFSMDIIDSLRKHVHQIDAVLLSHPDPLHLGALPYAVGKLGLNCAIYATIPVYKMGQMFMYDLYQSRHNTEDFTLFTLDDVDAAFDKIQQLKFSQIVNLKGKGHGLSITPLPAGHMIGGTIWKIVKDGEEEIVYAVDFNHKREIHLNGCSLEMLSRPSLLITDSFNATYVQPRRKQRDEQLLTNVLETLRGDGNVLIAVDTAGRVLELAQLLDQIWRTKDAGLGVYSLALLNNVSYNVVEFSKSQVEWMSDKLMRCFEDKRNNPFQFRHLSLCHGLSDLARVPSPKVVLASQPDLECGFSRDLFIQWCQDPKNSIILTYRTTPGTLARFLIDNPSEKITEIELRKRVKLEGKELEEYLEKEKLKKEAAKKLEQSKEADIDSSDESDIEEDIDQPSAHKTKHDLMMKGEGSRKGSFFKQAKKSYPMFPAPEERIKWDEYGEIIKPEDFLVPELQATEEEKSKLESGLTNGDEPMDQDLSDVPTKCISTTESIEIKARVTYIDYEGRSDGDSIKKIINQMKPRQLIIVHGPPEASQDLAECCRAFGGKDIKVYMPKLHETVDATSETHIYQVRLKDSLVSSLQFCKAKDAELAWIDGVLDMRVSKVDTGVILEEGELKDDGEDSEMQVEAPSDSSVIAQQKAMKSLFGDDEKETGEESEIIPTLEPLPPHEVPGHQSVFMNEPRLSDFKQVLLREGIQAEFVGGVLVCNNQVAVRRTETGRIGLEGCLCQDFYRIRDLLYEQYAIV
B3: Splicing regulatory glutamine/lysine-rich protein 1 (protein, UniProt Q8N9Q2 1-155, looked up)
Protein SREK1IP1: MAVPGCNKDSVRAGCKKCGYPGHLTFECRNFLRVDPKRDIVLDVSSTSSEDSDEENEELNKLQALQEKRINEEEEKKKEKSKEKIKLKKKRKRSYSSSSTEEDTSKQKKQKYQKKEKKKEKKSKSKKGKHHKKEKKKRKKEKHSSTPNSSEFSRK
B4: Metastasis-associated protein 1 (protein)
chain: MAANMYRVGDYVYFENSSSNPYLIRRIEELNKTANGNVEAKVVCFYRRRDISSTLIALADKHATLSVCYKAGPGADNGEEGEIEEEMENPEMVDLPEKLKHQLRHRELFLSRQLESLPATHIRGKCSVTLLNETESLKSYLEREDFFFYSLVYDPQQKTLLADKGEIRVGNRYQADITDLLKEGEEDGRDQSRLETQVWEAHNPLTDKQIDQFLVVARSVGTFARALDCSSSVRQPSLHMSAAAASRDITLFHAMDTLHKNIYDISKAISALVPQGGPVLCRDEMEEWSASEANLFEEALEKYGKDFTDIQQDFLPWKSLTSIIEYYYMWKTTDRYVQQKRLKAAEAESKLKQVYIPNYNKPNPNQISVNNVKAGVVNGTGAPGQSPGAGRACESCYTTQSYQWYSWGPPNMQCRLCASCWTYWKKYGGLKMPTRLDGERPGPNRSNMSPHGLPARSSGSPKFAMKTRQAFYLHTTKLTRIARRLCREILRPWHAARHPYLPINSAAIKAECTARLPEASQSPLVLKQAVRKPLEAVLRYLETHPRPPKPDPVKSVSSVLSSLTPAKVAPVINNGSPTILGKRSYEQHNGVDGNMKKRLLMPSRGLANHGQARHMGPSRNLLLNGKSYPTKVRLIRGGSLPPVKRRRMNWIDAPDDVFYMATEETRKIRKLLSSSETKRAARRPYKPIALRQSQALPPRPPPPAPVNDEPIVIED

How the values were obtained:
G9a and GLP = target: T1, G9a and GLP; assay: Triple SILAC pull-down after UNC0638 treatment of 293T cells, DMSO/UNC0638 ratio of protein captured by 3×MBT; format: cell-based; design: cells were treated for 24 hours with UNC0638 at 2.5 μM or DMSO vehicle control; endogenous in cells; host or cells: HEK 293T; conditions: for Protein Ratios DMSO/UNC0638: SILAC ratio of protein captured by 3xMBT, 293T cells treated 24 hours with UNC0638 at 2.5 μM or DMSO;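 as to all read-outs here: mass spectrometry (Q-Exactive) SILAC quantitation, DMSO/UNC0638 ratio computed after subtracting 3×MBTD355N mutant pull-down background, only proteins with at least twofold 3×MBT over mutant signal considered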
3×MBT domain of L3MBTL1 = assay: Triple SILAC pull-down, 3xMBT/3xMBTD355N ratio (cytoplasmic, nuclear and chromatin fractions of 293T cells); format: binding, human; conditions: SILAC ratio; for Protein Ratios 3xMBT/D355N: pull-down by 3xMBT vs 3xMBTD355N, 293T cells;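 as to all read-outs here: proteins quantified with MaxQuant, requiring at least two unique peptides and quantification in both label directions, normalized to the mean of proteins from a digested loading control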

| Molecule | Protein Ratios DMSO/UNC0638 (G9a and GLP) | Protein Ratios 3xMBT/D355N (3×MBT domain of L3MBTL1) | Relative to UNC0638 UNC Heavy (G9a and GLP; SILAC ratio DMSO/UNC0638 of protein pulled down with 3xMBT, UNC0638 in heavy SILAC media) | Relative to UNC0638 UNC Light (G9a and GLP; SILAC ratio DMSO/UNC0638 of protein pulled down with 3xMBT, UNC0638 in light SILAC media) | Relative to UNC0638 Average (G9a and GLP; average of UNC Light and UNC Heavy experiments) | Candidate G9a/GLP target (G9a and GLP; reduced association with 3xMBT after UNC0638 treatment) | 3xMBT/D355N UNC Heavy (3×MBT domain of L3MBTL1; pull-down 3xMBT vs 3xMBTD355N, experiment with UNC0638 in heavy SILAC media) | 3xMBT/D355N UNC Light (3×MBT domain of L3MBTL1; pull-down 3xMBT vs 3xMBTD355N, experiment with UNC0638 in light SILAC media) |
| --- | --- | --- | --- | --- | --- | --- | --- | --- |
| B1 | 2.3 | 8.6 | – | – | – | – | – | – |
| B2 | 3.1 | 8.1 | – | – | – | – | – | – |
| B3 | 4.4 | 2.9 | – | – | – | – | – | – |
| B4 | 1.4 | 6.0 | 0.36 log base 2 | 0.56 log base 2 | 0.46 log base 2 | ✓ | 0.90 log base 2 | 4.28 log base 2 |
